From the supplement of paper PMC12455559

Test: purified protein yield per well (BCA); higher = higher soluble expression
Method in brief: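 Values under 25 ug (0.1 mg/mL) are below the detection threshold. Purified protein yield per well was quantified with the Pierce Rapid Gold BCA kit after candidate enzymes, expressed in E. coli C41(DE3), were captured on Ni-charged magnetic beads and released by SUMO protease on an OT-2 robot. Cultures were 2 mL autoinduction with 100 µg/mL kanamycin, run 2 h at 37 °C and then 40 h at 18 °C.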

Sequence	purified protein yield per well [µg]
GGGGGGGGGGNSGDLPAPNPCTANCGFEIGPNPSLSFLRNGPGPLPVSTTTVPRSVDGFGGGTIYYPSNVSREMAAITISPGFTARQGGVAWWGSALASHGFVVMTIDTNSRFDQPASRGRQLDSALSYLISESDRRNSPISGLVDESRLATMGHSMGGGGSLHSASRNRISAAMPLAPWNQSGSGAFNNINVPTMILACESDTTARVGTHAIPFYNRIPNSTDKVYLEINNGNHSCSTGRSGNDRALLRTYGVSWMKRFLDKDGRYNQFLCGPNHTANSSISDFRDTCVF [DP063]	< 25
GPFAVSSVTVPAGSGPGFNDGTIYYPTDTSQGTFGAVVIMPGFVAVQGQIAWYGPRLASQGFVVMTMDSNALWDFPSDRSRQQLAALNYLTTKSPVKSRIDPNRLALMGWSMGGGGTLESAAANPSLKAAIPLAPWDITNPGDQISVPTMIFGADGDTVAPVSTFTRPAYDALTNTHDKAFVELKGADHFTFASPNTTVAKYSISWLKRFVDNDTRYDQFLCPIPN [TEP056]	< 25
GPGMEGNPYQRGPAPTTASIEAPTGAFAVSNASVPGGNGFGGGTLTYPTDTSQGTFGAVVVTPGFLSPEMKWYGPRLASQGFVVLTIATNTAVDQPGARAAQMLAALRYLVEQSPVKNRVDGSRLAVMGHSMGGGGSLEAAEAYPALKAAIPLEPWDLGKSFSAVRTPTLIVGGQSDWIAPVGQHAVPFYNSIPAGVNKAYIELAGGSHFVPMSPNVTIAKYSIAWLKRFVDNDTRYDQFLCPVPQAAALSVSKGTCPHT [TEP175]	< 25
GPTDFQRGPAPTEQSITAERGPFATAQTTVDGPNFNKGTAYYPTDTSQGTFGAVAISPGFASPEAVVSWYGPRLASQGFVVLTLETNSGSDLPDSRATQLVNALDFLVQSSSVKDRIDPNRLAVMGHSMGGGGSLKASELRPSLKAAIPLMPWNNDKTWQGDRVPTMIMGAQNDAIASPASHAKPFYDSLTSAPEKAYLELRSEGHLVAVSPNVTIAKYSIAWLKRFVDEDVRYEQFLCPAPTANLQISEYRNTCPTG [DP025]	< 25
GPYQVAYYSSYPPVPEFSAATIYFPANKGEDFAGVAISPGFVESQENMSWWGRHLASHGFAVLTLDTNELRDNPSLRADALMAAIEVLRNEGDRMGSTLRGKILKDRMAIMGHSMGGGGTLIAANAHSADLKAAIPFTPWQPDGDFSTISIPTLVIAGENDRIAVMDIHGASLSTIHHEGDEGV [TEP125]	< 25
GQSCDSLLLQSITNPGPFPVNNIDENSGIRNGPNYNGSTIYYPANNVNTLYSSIIMVPGFMNTELTIQNWGPFFASHGIITMTIGANGLTDTHIQRRDALLDAIVSLKNENQRVASPLFGKIDTFSIAVGGVSKGGGGAQLVPAIDLSIKAIVSLYPWLDNPTSSDLNHSVPVIIISGQLDALAPPSLHADIHYNLTPNTTNKLKYEVAFGTHDVISGPNGGNGEVGIRVISWLQNFLLSDSCYCPITILDASTSSSYITNVVCSNTTVGISQLEPYFLKKVLKIIDVLGREAEGNKNEPLFYIYNDGTVEKKIIIE [TEP017]	< 25
GRMDSNVIDASGYSDLSLSFDRTTSGLDFGESGRVSVSINGGSFTVLESLRRASGRTTLQLGSSADNSSIQIRYQTFASSFYEIYTIDNIVIEGNSDSPPPPPPTGDLAAIGAYLETGGTATTPDQFSFTNTGDINIDSLTIDLSGGNASPVFDPNGVSFTVTGSDNVGFSGNFGLSGNSLLTLNFIDFGPGETFSFSGDLDDSNGSYTTGADVMGAELTVSASGNPSVSASFTVDSSNADRAVVNIGGSTPPPPIGGGCGPDPTVASLEASTGPFSFSNIDVPSSAQGFRNGTIYYPTNAPSDCTFGVISVVPGFLANESSIDWWGPRLASHGFIVITINTNTITDQPNSRALQSIAALNYAVNLGNSSSSAIGGKVDSSKQGVMGWSMGGGGALRAAADNPYLKAAMPQAPFNSGPNDFDEITVPTLIIACENDTVASVGIHASPFYNAISSTTEKGFLEINNGNHSCANGGSNRDILGKYGVSWMKRFMDDDTRYSQFLCDVNHTSDSAISDYRENCPY [TEP172]	< 25
HAPAHAPAHQPVVAHHHAPFAVRTTVVPKTAVKAFGGGVIYTPQDTGKAVLGAVVITPGFTDTNADEKELAELVASQGFVAFAIDTLDTGDLPDQRATEILAAADYLTGQSAVRSEVSAKDVGLIGYSFGGGGTMQAAQARPSIKAAIGLMPFDFPPASDPNAQYPAYPKLTTPTLVITGQKDDVADPADFGKPAYDSIPGGTPKQYLELKGLDHYAGEHTPVAAIRNAVTAFLKRYLDGNSAYAKLICPAPKVGGPITASYSSCPKG [ESM190]	< 25
HAPAPQPVVVHHHAPFAVRTTVVPKTAVKAFGGGVIYTPQDTGKPVLGAVVITPGFTNTNADEKELGQLVASQGFVAFVIDTLDTGDLPAQRATEILAATDYLTGQSAVRSEVSAKDVGLIGYSFGGGGTMQAAQSRPSIKAAIGLMPFDVPPASDPHALYATYPKLTTPTLVITGQKDEVARPKDFGKPAYDSIPAGTPKQYLELKGLDHSAGEHAPVAAIRNAVTAFLKRYLDGNSAYAKFICPAPKVGGPISVSLSSCPKG [ESM155]	< 25
HAPVHQPAVAHHHAPFAVRTTAVPKTAVTTFGGGVIYTPQDTGKAVLGAVVITPGFTDTNADEKEMAELVASQGFVAFAIDTLDTSDLPAQRSTEILAAADYLTGQSAVKSQVSAKDVGLIGYSFGGGGTMEAAQARPSIKAAIGLMPFDFPDANDPNAQYATYPKLTTPTLVITGEKDDVATPKDYGKPAYDSIPAGTPKQYLELKGLGHGAGEHVPVPTIRNAVTAFLKRYLDGNSAYAKFICPAPKVGGPISVSLSSCPKG [TEP026]	< 25
HGFNGGYIYYPTDTSQTFGAVAIVPAYTALFADEEAWMGPRLASFGFVVIGIETNSREDWDRARGAQLLAGLDYLTQHSAVRTRIDARRLAVIGHSMGGGGAFAAAARRPSLRAVVGLTPYFPSGDLATIRVPTLIIGGQNDTTVTPSYLERLYASLPTRTPSAYVMLADADHLFPTKPNPDQMRVLVPWLKIFVDKDVRYTRFLCPLADRSGISQYQVTCPLVPTV [TEP043]	< 25
IENGPAPTFSSVQADGPFAVSTQTVRGSGFGGGTVYSPNTAGKYAVVAVCPGFTATQTSIALISRRLATHGFVVVTINTNTVYDYPASRANQLLAALRTVTALTTGPVAGKMDTSRQAVSGWSMGGGGAMLAAGMTPGLKAGVAFAPWSLTNNVGSSAVPMAYLAGTADTVAPASVHSSVFYNATPATTKKLIGVIQGADHYFPGTASQPASYTQVAWMKRFLDGDTRYSQFLNGDTRFATFRSTGPF [ESM109]	< 25
IENGPAPTLADLQKDGPYAVTSQVVKGSGFGGGTVYSPNTAGKYALVAVCPGFVSPQSSMTDMSKRLATHGFVVVAITTNTLFDFPSSRATQLLAALKTVAALNTGAAAGKIDITRQVVSGWSMGGGGTLEAAGVTPGLTAAVAFAPWDTATTKMKTLTVPVAIFGGTNDTIAPVSGHSQKFYDIIPATTKKMLAVITGADHFFPTKASEPTSYSNISWVKRFADGDTRYSQFLNGQDAALASFTSTGPF [ESM138]	< 25
IRETRVSSSVRGFGGGTIYYPTGTSGTMGAIVVIPGFVSPESSIAWWGPKLASHGFVVMTIATNRTTDQPSSRATQINAALDYLISQNSTSGSPVRNMIDTDRLGVMGWSMGGGGTLRVASQNRLKAAIPLAPYDTISFRNVDAPTLIFGCESDTVAPVRNHASPFYNQIPAGTDKAFVELNGGSHTCANGGNQYLSLIHI [ESM057]	< 25
ITPPPDDDGNNGGGDTCQQDCGFERGPNPTVASLESRSGPFSVRTSSVSSRVSGFGGGTIHYPTGQTGTMGAIVVIPGFVSAESSIAWWGTQLAAHGFVVMTIDTNSGTDQPPSRARQINAALDYLVSQNTASGSPVRGMIDPSRLGVAGWSMGGGGTLRVATEGRIKAAMPLAPWDTGSTQFRSVKAQTLIFACESDAIAPVNSHASPFYNALPNNINKAFVEISRGSHYCANGGNSNNSLLSRLGVSWMKLHLDQDQRYNQFICGPRHESDRSISEYRGNCSN [ESM115]	< 25
IYTMVDTLSLHDALPISQYRKIPDSKYHLFIKRFYKGFLNLSLWEVRYMSNRLFRARRTVFSVLILFAFMISFVAAIPGVSYASPPIVRYDYAPGKYSGNGPYSYSTYQLPGWSHGATVYYPTNASAPFSGIVFCPPYTGTQIMFRDWGPFFASHGIVLVTMDTSSILISVDERAVEQRTVLNLLKAENSRSGSPLYQKLDTDRVGAMGWSMGGGATWINSAEYPGLKTAMSLAGHNLTAININSKGFGTQCPTIIFCGALDTTYLGGMLQSETVYYNIPSGVPKVYYEVGTAGHFVWGGPTDANDHVAELALAFQKTFLDGDDRWEGFIEKPRFDYLSTFRSRN [TEP185]	< 25
